Laboratory results reported in patent publication US20200199250A1 (KYMAB, published 2020).

Biological target: human factor X (human, UniProt P00742 41-179; P00742 183-488)
Test: cell-based or functional assay

Chain of human factor X (P00742 41-179, chain 1 of 2): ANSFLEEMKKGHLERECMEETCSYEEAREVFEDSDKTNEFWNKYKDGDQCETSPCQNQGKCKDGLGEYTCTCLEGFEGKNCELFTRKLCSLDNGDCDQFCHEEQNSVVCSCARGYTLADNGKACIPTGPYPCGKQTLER
Chain of human factor X (P00742 183-488, chain 2 of 2): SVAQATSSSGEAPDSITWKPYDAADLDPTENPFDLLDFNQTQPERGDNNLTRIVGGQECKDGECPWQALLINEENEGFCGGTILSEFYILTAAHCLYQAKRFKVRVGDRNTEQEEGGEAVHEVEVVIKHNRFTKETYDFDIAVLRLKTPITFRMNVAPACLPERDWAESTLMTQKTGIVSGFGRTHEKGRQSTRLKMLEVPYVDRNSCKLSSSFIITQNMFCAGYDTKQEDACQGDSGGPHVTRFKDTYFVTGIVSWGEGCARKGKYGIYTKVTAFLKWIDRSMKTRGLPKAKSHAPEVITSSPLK

B1: IXAX-1280.0999.0325 (bispecific antibody, human IgG4 S228P, lambda)
heavy 1: EVQLVESGGGFVQPGGSLRLSCAVSGFRFNSYWMSWVRQAPGKGLEWVANINQDGSRKFYVASVKGRFTMSRDNAKKSVYVQMNSLRAEDTAVYYCAREGYSSIKYYGMDVWGQGTTVTVSSASTKGPSVFPLAPCSRSTSESTAALGCLVKDYFPEPVTVSWNSGALTSGVHTFPAVLQSSGLYSLSSVVTVPSSSLGTQTYTCNVDHKPSNTKVDKRVESKYGPPCPPCPAPEFLGGPSVFLFPPKPKDTLMISRTPEVTCVVVDVSQEDPEVQFNWYVDGVEVHNAKTKPREEQYNSTYRVVSVLTVLHQDWLNGKEYKCKVSNKGLPSSIEKTISKAKGQPREPQVYTLPPSQEEMTKNQVSLTCLVKGFYPSDIAVEWESNGQPENNYKTTPPVLDSDGSFFLYSKLTVDKSRWQEGNVFSCSVMHEALHNHYTQESLSLSP
heavy 2: QVQLIQSGAKVKKPGASVKVSCKASRYKFTSYYMHWVRQAPGQGLEWMGIINPKSGSTSYAQKFQGRVTMTRDTSTSTVYMELSSLRSEDTAVYYCARDGYGSFSRLIQLWGQGTLVTVSSASTKGPSVFPLAPCSRSTSESTAALGCLVKDYFPEPVTVSWNSGALTSGVHTFPAVLQSSGLYSLSSVVTVPSSSLGTQTYTCNVDHKPSNTKVDKRVESKYGPPCPPCPAPEFLGGPSVFLFPPKPKDTLMISRTPEVTCVVVDVSQEDPEVQFNWYVDGVEVHNAKTKPREEQYNSTYRVVSVLTVLHQDWLNGKEYKCKVSNKGLPSSIEKTISKAKGQPREPQVYTLPPSQKEMTKNQVSLTCLVKGFYPSDIAVEWESNGQPENNYKTTPPVLDSDGSFFLYSKLTVDKSRWQEGNVFSCSVMHEALHNHYTQKSLSLSP
light: YVLTQPPSVSVAPGETARITCGGDNIGRKSVYWYQQKSGQAPVLVIYYDSDRPSGIPERFSGSNSGNTATLTISRVEAGDEADYYCQVWDGSSDHWVFGGGTKLTVLGQPKAAPSVTLFPPSSEELQANKATLVCLISDFYPGAVTVAWKADSSPVKAGVETTTPSKQSNNKYAASSYLSLTPEQWKSHKSYSCQVTHEGSTVEKTVAPTECS
- EC50, Hyphen chromogenic FVIII mimetic activity assay (FXa generation with added FX and FIXa in diluted FVIII deficient plasma; OD405): 5.92 nM
